Experimental findings from publication PMC314469, “Protein Interaction Networks by Proteome Peptide Scanning” (PLoS Biology, 2004) are described below.

T1: Myo5 SH3 (MYO5_YEAST), Q04439
T1 chain: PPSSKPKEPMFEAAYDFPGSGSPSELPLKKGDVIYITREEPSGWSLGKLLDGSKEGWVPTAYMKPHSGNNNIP

The assay concerns the target T1, Myo5 SH3 (MYO5_YEAST), Q04439. The assay is described as follows: SPOT array.
Take VPPNFNAPPNPMAF [YNL118C 392-405]: the normalised SPOT signal, Boehringer light units (BLU); mean over the file's lines of this peptide stood at 1570.
In the case of TLRSMIPPFTPQLD [YGR092W 484-497] it was 413; in that of VAGYFVIPHTPMPS [YOR378W 217-230], 180; in that of TPMDFPEPVGPLAI [YPL154C 366-379], 175.
Under TLIEYMGPAPPKGS [YLR178C 145-158] stands 133.
Molecule WLSKLVLPPPPVSI [YHR021W-A 81-94] returned a normalised SPOT signal, Boehringer light units (BLU); mean over the file's lines of this peptide of 4130.
Regarding VPDQLLTPLQPYTI [YJL127C 32-45], the normalised SPOT signal, Boehringer light units (BLU); mean over the file's lines of this peptide turned out to be 168.
In the case of TLKKFVLPSLPRKN [YOR034C 339-352] it was 504.
The molecule TFRDMDLPQHPVIH [YLR030W 45-58] had a normalised SPOT signal, Boehringer light units (BLU); mean over the file's lines of this peptide of 188.
In the case of VPAILMTPISPRSL [YPL188W 282-295] it was 138; in that of VLIKFVIPVYPSLP [YGR099W 37-50], 562.
In turn, WLLPYSLPMHPGRW [YHR072W 218-231] gave a normalised SPOT signal, Boehringer light units (BLU); mean over the file's lines of this peptide of 706.
Under TPSNMGSPGSPVNV [YOL148C 21-34] stands 156; under VLTKMNAPQKPEDI [YCR004C 46-59], 296.
VFKFLFHPVTPSHF [YJL005W 768-781] had a normalised SPOT signal, Boehringer light units (BLU); mean over the file's lines of this peptide of 565.
In the case of VPGGMSIPGAPQGA [YPL169C 514-527] it was 140; in that of TPYQLLSPILPVLL [YBR136W 679-692], 287.
Under TFSIYSIPSKPGES [YPL100W 474-487] stands 227; under VPSAFTAPPVPTKK [YDR517W 312-325], 358.
In the case of VARPLSVPGSPRDL [YLR258W 646-659] it was 186; in that of VLKGFYSPSAPSYD [YOR029W 22-35], 290; in that of TPINFVFPNLPLEH [YHR007C 237-250], 81.8.
As to TWKMHLWPVSPPQL [YLR039C 34-47], the normalised SPOT signal, Boehringer light units (BLU); mean over the file's lines of this peptide is 224.
In the case of VPDSYKPPKNPIVF [YDR058C 17-30] it was 829.
In the case of VLKNLPTPGEPFNF [YML131W 8-21] it was 148.
The molecule VPIIFEIPFNPIYK [YKL205W 1001-1014] displayed a normalised SPOT signal, Boehringer light units (BLU); mean over the file's lines of this peptide of 215.
In the case of VAPGLWFPNSPPPL [YPL128C 101-114] it was 4830.
Under VLFNLDHPMVPENL [YAL018C 292-305] stands 220; under TLEWLLTPYTPGDD [YLR422W 982-995], 164; under VLKTLAFPINPSDI [YBR026C 53-66], 156.
Take VEVIMHSPSDPEYA [YML117W 995-1008]: the normalised SPOT signal, Boehringer light units (BLU); mean over the file's lines of this peptide was 150.
In the case of VFSSLRDPVIPIKL [YGL195W 2560-2573] it was 132; in that of VFSLMNSPAYPDVQ [YIL001W 264-277], 153.
Under TLHELGVPITPIAF [YOR184W 245-258] stands 119.
Regarding TLFRFIVPFNPYFS [YLR198C 4-17], the normalised SPOT signal, Boehringer light units (BLU); mean over the file's lines of this peptide was 882.
In the case of TPPPPPLPSVLSS [YNL271C 1302-1314] it was 25800; in that of VAVPFTLPVIPYDL [YBR223C 517-530], 240.
On to VPGEHFAPMGPNGQ [YHR098C 250-263], for which the normalised SPOT signal, Boehringer light units (BLU); mean over the file's lines of this peptide came out at 64.7.
TLATLTEPKLPKSY [YOL111C 18-31] displayed a normalised SPOT signal, Boehringer light units (BLU); mean over the file's lines of this peptide of 18.
Under TPTPHPHPHTPHPH [YHR217C 42-55] stands 158.
In the case of VAKSYGFPVPPKVN [YMR290C 473-486] it was 259.
In the case of VLLPLRLPEIPPKG [YFL036W 1323-1336] it was 1070.
The molecule VELHFPKPEDPASI [YMR246W 254-267] gave a normalised SPOT signal, Boehringer light units (BLU); mean over the file's lines of this peptide of 14.9.
Regarding VPNRWATPLDPSIL [YAL015C 71-84], the normalised SPOT signal, Boehringer light units (BLU); mean over the file's lines of this peptide is 126.
Under VEPEWYLPILPMIL [YNL088W 813-826] stands 236; under VLEAYNVPTPPRLE [YLR410W 284-297], 57.4.
Under TLPPLSSPMNPNGH [YDR096W 584-597] stands 252.
Under VAWSHDSPKPPSDR [YHR163W 199-212] stands 30.6.
Molecule VLGVLNVPLPPQTR [YGL197W 857-870] registered a normalised SPOT signal, Boehringer light units (BLU); mean over the file's lines of this peptide of 233.
In the case of VPLPFGIPPFPMFP [YKL059C 406-419] it was 11600.
VFGTYLGPDAPLSK [YMR272C 367-380]: the normalised SPOT signal, Boehringer light units (BLU); mean over the file's lines of this peptide is 130.
Under TPTHHHIPHIPNQN [YPR065W 331-344] stands 148; under VFLRLISPTRPSLE [YOR249C 40-53], 1640.
The molecule VLSKFIKPKNPSLV [YPL226W 187-200] gave a normalised SPOT signal, Boehringer light units (BLU); mean over the file's lines of this peptide of 320.
